Measured values published in patent US20150246136A1 (Bayer, published 2015).

Molecular target: Mesothelin (SwissProt reference Q13421-3) (Homo sapiens, UniProt Q13421 37-622)
Experiment: cell-based or functional assay

IC50 (nM), HT29 meso+ cells, MTT proliferation assay	Binder
0.8 nM	Example 77, conjugate of anti-mesothelin antibody MF-Ta (antibody, human IgG1, lambda, V domains shown, toxophore-linker on Cys sulfur, sites not given) VH: QVELVQSGAEVKKPGESLKISCKGSGYSFTSYWIGWVRQAPGKGLEWMGIIDPGDSRTRYSPSFQGQVTISADKSISTAYLQWSSLKASDTAMYYCARGQLYGGTYMDGWGQGTLVTVSS VL: DIALTQPASVSGSPGQSITISCTGTSSDIGGYNSVSWYQQHPGKAPKLMIYGVNNRPSGVSNRFSGSKSGNTASLTISGLQAEDEADYYCSSYDIESATPVFGGGTKLTVLG
1.1 nM	Example 78, conjugate of anti-mesothelin antibody MF-Ta (antibody, human IgG1, lambda, V domains shown, toxophore-linker on Cys sulfur, sites not given) VH: QVELVQSGAEVKKPGESLKISCKGSGYSFTSYWIGWVRQAPGKGLEWMGIIDPGDSRTRYSPSFQGQVTISADKSISTAYLQWSSLKASDTAMYYCARGQLYGGTYMDGWGQGTLVTVSS VL: DIALTQPASVSGSPGQSITISCTGTSSDIGGYNSVSWYQQHPGKAPKLMIYGVNNRPSGVSNRFSGSKSGNTASLTISGLQAEDEADYYCSSYDIESATPVFGGGTKLTVLG
0.013 nM	Example 95, conjugate of anti-mesothelin antibody MF-Ta (antibody, human IgG1, lambda, V domains shown, toxophore-linker on Cys sulfur, sites not given) VH: QVELVQSGAEVKKPGESLKISCKGSGYSFTSYWIGWVRQAPGKGLEWMGIIDPGDSRTRYSPSFQGQVTISADKSISTAYLQWSSLKASDTAMYYCARGQLYGGTYMDGWGQGTLVTVSS VL: DIALTQPASVSGSPGQSITISCTGTSSDIGGYNSVSWYQQHPGKAPKLMIYGVNNRPSGVSNRFSGSKSGNTASLTISGLQAEDEADYYCSSYDIESATPVFGGGTKLTVLG
4.4 nM	Example 80, conjugate of anti-mesothelin antibody MF-Ta (antibody, human IgG1, lambda, V domains shown, toxophore-linker on Cys sulfur, sites not given) VH: QVELVQSGAEVKKPGESLKISCKGSGYSFTSYWIGWVRQAPGKGLEWMGIIDPGDSRTRYSPSFQGQVTISADKSISTAYLQWSSLKASDTAMYYCARGQLYGGTYMDGWGQGTLVTVSS VL: DIALTQPASVSGSPGQSITISCTGTSSDIGGYNSVSWYQQHPGKAPKLMIYGVNNRPSGVSNRFSGSKSGNTASLTISGLQAEDEADYYCSSYDIESATPVFGGGTKLTVLG
0.6 nM	Example 94, conjugate of anti-mesothelin antibody MF-Ta (antibody, human IgG1, lambda, V domains shown, toxophore-linker on Cys sulfur, sites not given) VH: QVELVQSGAEVKKPGESLKISCKGSGYSFTSYWIGWVRQAPGKGLEWMGIIDPGDSRTRYSPSFQGQVTISADKSISTAYLQWSSLKASDTAMYYCARGQLYGGTYMDGWGQGTLVTVSS VL: DIALTQPASVSGSPGQSITISCTGTSSDIGGYNSVSWYQQHPGKAPKLMIYGVNNRPSGVSNRFSGSKSGNTASLTISGLQAEDEADYYCSSYDIESATPVFGGGTKLTVLG
0.9 nM	Example 87, conjugate of anti-mesothelin antibody MF-Ta (antibody, human IgG1, lambda, V domains shown, toxophore-linker on Lys NH, sites not given) VH: QVELVQSGAEVKKPGESLKISCKGSGYSFTSYWIGWVRQAPGKGLEWMGIIDPGDSRTRYSPSFQGQVTISADKSISTAYLQWSSLKASDTAMYYCARGQLYGGTYMDGWGQGTLVTVSS VL: DIALTQPASVSGSPGQSITISCTGTSSDIGGYNSVSWYQQHPGKAPKLMIYGVNNRPSGVSNRFSGSKSGNTASLTISGLQAEDEADYYCSSYDIESATPVFGGGTKLTVLG
38 nM	Example 92, conjugate of anti-mesothelin antibody MF-Ta (antibody, human IgG1, lambda, V domains shown, toxophore-linker on Cys sulfur, sites not given) VH: QVELVQSGAEVKKPGESLKISCKGSGYSFTSYWIGWVRQAPGKGLEWMGIIDPGDSRTRYSPSFQGQVTISADKSISTAYLQWSSLKASDTAMYYCARGQLYGGTYMDGWGQGTLVTVSS VL: DIALTQPASVSGSPGQSITISCTGTSSDIGGYNSVSWYQQHPGKAPKLMIYGVNNRPSGVSNRFSGSKSGNTASLTISGLQAEDEADYYCSSYDIESATPVFGGGTKLTVLG
0.35 nM	Example 91, conjugate of anti-mesothelin antibody MF-Ta (antibody, human IgG1, lambda, V domains shown, toxophore-linker on Cys sulfur, sites not given) VH: QVELVQSGAEVKKPGESLKISCKGSGYSFTSYWIGWVRQAPGKGLEWMGIIDPGDSRTRYSPSFQGQVTISADKSISTAYLQWSSLKASDTAMYYCARGQLYGGTYMDGWGQGTLVTVSS VL: DIALTQPASVSGSPGQSITISCTGTSSDIGGYNSVSWYQQHPGKAPKLMIYGVNNRPSGVSNRFSGSKSGNTASLTISGLQAEDEADYYCSSYDIESATPVFGGGTKLTVLG
0.01 nM	Example 88, conjugate of anti-mesothelin antibody MF-Ta (antibody, human IgG1, lambda, V domains shown, toxophore-linker on Cys sulfur, sites not given) VH: QVELVQSGAEVKKPGESLKISCKGSGYSFTSYWIGWVRQAPGKGLEWMGIIDPGDSRTRYSPSFQGQVTISADKSISTAYLQWSSLKASDTAMYYCARGQLYGGTYMDGWGQGTLVTVSS VL: DIALTQPASVSGSPGQSITISCTGTSSDIGGYNSVSWYQQHPGKAPKLMIYGVNNRPSGVSNRFSGSKSGNTASLTISGLQAEDEADYYCSSYDIESATPVFGGGTKLTVLG
0.06 nM	Example 89, conjugate of anti-mesothelin antibody MF-Ta (antibody, human IgG1, lambda, V domains shown, toxophore-linker on Cys sulfur, sites not given) VH: QVELVQSGAEVKKPGESLKISCKGSGYSFTSYWIGWVRQAPGKGLEWMGIIDPGDSRTRYSPSFQGQVTISADKSISTAYLQWSSLKASDTAMYYCARGQLYGGTYMDGWGQGTLVTVSS VL: DIALTQPASVSGSPGQSITISCTGTSSDIGGYNSVSWYQQHPGKAPKLMIYGVNNRPSGVSNRFSGSKSGNTASLTISGLQAEDEADYYCSSYDIESATPVFGGGTKLTVLG
52 nM	Example 93, conjugate of anti-mesothelin antibody MF-Ta (antibody, human IgG1, lambda, V domains shown, toxophore-linker on Lys NH, sites not given) VH: QVELVQSGAEVKKPGESLKISCKGSGYSFTSYWIGWVRQAPGKGLEWMGIIDPGDSRTRYSPSFQGQVTISADKSISTAYLQWSSLKASDTAMYYCARGQLYGGTYMDGWGQGTLVTVSS VL: DIALTQPASVSGSPGQSITISCTGTSSDIGGYNSVSWYQQHPGKAPKLMIYGVNNRPSGVSNRFSGSKSGNTASLTISGLQAEDEADYYCSSYDIESATPVFGGGTKLTVLG
2.6 nM	Example 90, conjugate of anti-mesothelin antibody MF-Ta (antibody, human IgG1, lambda, V domains shown, toxophore-linker on Cys sulfur, sites not given) VH: QVELVQSGAEVKKPGESLKISCKGSGYSFTSYWIGWVRQAPGKGLEWMGIIDPGDSRTRYSPSFQGQVTISADKSISTAYLQWSSLKASDTAMYYCARGQLYGGTYMDGWGQGTLVTVSS VL: DIALTQPASVSGSPGQSITISCTGTSSDIGGYNSVSWYQQHPGKAPKLMIYGVNNRPSGVSNRFSGSKSGNTASLTISGLQAEDEADYYCSSYDIESATPVFGGGTKLTVLG
0.2 nM	Example 85, conjugate of anti-mesothelin antibody MF-Ta (antibody, human IgG1, lambda, V domains shown, toxophore-linker on Cys sulfur, sites not given) VH: QVELVQSGAEVKKPGESLKISCKGSGYSFTSYWIGWVRQAPGKGLEWMGIIDPGDSRTRYSPSFQGQVTISADKSISTAYLQWSSLKASDTAMYYCARGQLYGGTYMDGWGQGTLVTVSS VL: DIALTQPASVSGSPGQSITISCTGTSSDIGGYNSVSWYQQHPGKAPKLMIYGVNNRPSGVSNRFSGSKSGNTASLTISGLQAEDEADYYCSSYDIESATPVFGGGTKLTVLG
6 nM	Example 84, conjugate of anti-mesothelin antibody MF-Ta (antibody, human IgG1, lambda, V domains shown, toxophore-linker on Lys NH, sites not given) VH: QVELVQSGAEVKKPGESLKISCKGSGYSFTSYWIGWVRQAPGKGLEWMGIIDPGDSRTRYSPSFQGQVTISADKSISTAYLQWSSLKASDTAMYYCARGQLYGGTYMDGWGQGTLVTVSS VL: DIALTQPASVSGSPGQSITISCTGTSSDIGGYNSVSWYQQHPGKAPKLMIYGVNNRPSGVSNRFSGSKSGNTASLTISGLQAEDEADYYCSSYDIESATPVFGGGTKLTVLG
0.45 nM	Example 86, conjugate of anti-mesothelin antibody MF-Ta (antibody, human IgG1, lambda, V domains shown, toxophore-linker on Cys sulfur, sites not given) VH: QVELVQSGAEVKKPGESLKISCKGSGYSFTSYWIGWVRQAPGKGLEWMGIIDPGDSRTRYSPSFQGQVTISADKSISTAYLQWSSLKASDTAMYYCARGQLYGGTYMDGWGQGTLVTVSS VL: DIALTQPASVSGSPGQSITISCTGTSSDIGGYNSVSWYQQHPGKAPKLMIYGVNNRPSGVSNRFSGSKSGNTASLTISGLQAEDEADYYCSSYDIESATPVFGGGTKLTVLG
0.3 nM	Example 83, conjugate of anti-mesothelin antibody MF-Ta (antibody, human IgG1, lambda, V domains shown, toxophore-linker on Cys sulfur, sites not given) VH: QVELVQSGAEVKKPGESLKISCKGSGYSFTSYWIGWVRQAPGKGLEWMGIIDPGDSRTRYSPSFQGQVTISADKSISTAYLQWSSLKASDTAMYYCARGQLYGGTYMDGWGQGTLVTVSS VL: DIALTQPASVSGSPGQSITISCTGTSSDIGGYNSVSWYQQHPGKAPKLMIYGVNNRPSGVSNRFSGSKSGNTASLTISGLQAEDEADYYCSSYDIESATPVFGGGTKLTVLG
0.02 nM	Example 81, conjugate of anti-mesothelin antibody MF-Ta (antibody, human IgG1, lambda, V domains shown, toxophore-linker on Cys sulfur, sites not given) VH: QVELVQSGAEVKKPGESLKISCKGSGYSFTSYWIGWVRQAPGKGLEWMGIIDPGDSRTRYSPSFQGQVTISADKSISTAYLQWSSLKASDTAMYYCARGQLYGGTYMDGWGQGTLVTVSS VL: DIALTQPASVSGSPGQSITISCTGTSSDIGGYNSVSWYQQHPGKAPKLMIYGVNNRPSGVSNRFSGSKSGNTASLTISGLQAEDEADYYCSSYDIESATPVFGGGTKLTVLG
25 nM	Example 96, conjugate of anti-mesothelin antibody MF-Ta (antibody, human IgG1, lambda, V domains shown, toxophore-linker on Cys sulfur, sites not given) VH: QVELVQSGAEVKKPGESLKISCKGSGYSFTSYWIGWVRQAPGKGLEWMGIIDPGDSRTRYSPSFQGQVTISADKSISTAYLQWSSLKASDTAMYYCARGQLYGGTYMDGWGQGTLVTVSS VL: DIALTQPASVSGSPGQSITISCTGTSSDIGGYNSVSWYQQHPGKAPKLMIYGVNNRPSGVSNRFSGSKSGNTASLTISGLQAEDEADYYCSSYDIESATPVFGGGTKLTVLG
0.2 nM	Example 97, conjugate of anti-mesothelin antibody MF-Ta (antibody, human IgG1, lambda, V domains shown, toxophore-linker on Cys sulfur, sites not given) VH: QVELVQSGAEVKKPGESLKISCKGSGYSFTSYWIGWVRQAPGKGLEWMGIIDPGDSRTRYSPSFQGQVTISADKSISTAYLQWSSLKASDTAMYYCARGQLYGGTYMDGWGQGTLVTVSS VL: DIALTQPASVSGSPGQSITISCTGTSSDIGGYNSVSWYQQHPGKAPKLMIYGVNNRPSGVSNRFSGSKSGNTASLTISGLQAEDEADYYCSSYDIESATPVFGGGTKLTVLG
0.5 nM	Example 79, conjugate of anti-mesothelin antibody MF-Ta (antibody, human IgG1, lambda, V domains shown, toxophore-linker on Cys sulfur, sites not given) VH: QVELVQSGAEVKKPGESLKISCKGSGYSFTSYWIGWVRQAPGKGLEWMGIIDPGDSRTRYSPSFQGQVTISADKSISTAYLQWSSLKASDTAMYYCARGQLYGGTYMDGWGQGTLVTVSS VL: DIALTQPASVSGSPGQSITISCTGTSSDIGGYNSVSWYQQHPGKAPKLMIYGVNNRPSGVSNRFSGSKSGNTASLTISGLQAEDEADYYCSSYDIESATPVFGGGTKLTVLG
24 nM	Example 82, conjugate of anti-mesothelin antibody MF-Ta (antibody, human IgG1, lambda, V domains shown, toxophore-linker on Cys sulfur, sites not given) VH: QVELVQSGAEVKKPGESLKISCKGSGYSFTSYWIGWVRQAPGKGLEWMGIIDPGDSRTRYSPSFQGQVTISADKSISTAYLQWSSLKASDTAMYYCARGQLYGGTYMDGWGQGTLVTVSS VL: DIALTQPASVSGSPGQSITISCTGTSSDIGGYNSVSWYQQHPGKAPKLMIYGVNNRPSGVSNRFSGSKSGNTASLTISGLQAEDEADYYCSSYDIESATPVFGGGTKLTVLG
